Measurements published in article PMC10284691, “A tripartite rheostat controls self-regulated host plant resistance to insects” (Nature, 2023).

Experiments:
[1] = molecular target: T1, BISP (purified from insect cells) (Nilaparvata lugens (brown planthopper)); assay: BLI; Octet RED96; biotinylated LRR or N14–LRR (20 μg/ml) on streptavidin biosensors, BISP, BISP(26–124) or BISP(125–241) in solution at different concentrations; PBS pH 7.4 with 0.05% Tween 20 and 0.5% BSA; 25 °C; association 180 s, dissociation 180 s; global fit; conditions: both partners purified
T1 construct: probably this one too; source: SF9 insect cells (baculovirus), purified (Ni-NTA, dialysed in PBS)

[2] = molecular target: T2, BISP(26–124) (purified from insect cells) (Nilaparvata lugens (brown planthopper)); assay: as above; conditions: both partners purified
T2 construct: source: SF9 insect cells (baculovirus), purified (Ni-NTA, dialysed in PBS)

B1: BPH14–LRR (purified from insect cells) (domain or fragment)
chain: SGDRPEAIRTPSPEKGYPGIQTLICSRFKYLQNVSKYRSLRVLTTMWEGSFLIPKYHHHLRYLDLSESEIKALPEDISILYHLQTLNLSRCLSLRRLPKGMKYMTALRHLYTHGCWSLGSMPPDLGHLTCLQTLTCFVAGTCSGCSDLGELRQLDLGGRLELRKLENVTKADAKAANLGKKEKLTKLTLIWTDQEYKEAQSNNHKEVLEGLTPHEGLKVLSIYHCGSSTCPTWMNKLRDMVGLELNGCKNLEKLPPLWQLPALQVLCLEGLGSLNCLFNCDTHTPFTFCRLKELTLSDMTNFETWWDTNEVQGEELMFPEVEKLSIESCHRLTALPKASNAISESSGEVSTVCRSAFPALKEMKLYDLRIFQKWEAVDGTPREEATFPQLDKLEIRQCPELTTLPEAPKLSDLEISKGNQQISLQAASRHITSLSSLVLHLSTDDTETASVAKQQDSSDLVIEDEKWSHKSPLELMVLSRCNLLFSHPSALALWTCFAQLLDLKIRYVDALVSWPEEVFQGLVSLRKLEISVCENLTGHTQARGQSTPAPSELLPRLESLEITCCDSIVEVPNLPASLKLLEIRGCPGLESIVFNQQQDRTMLVSAESFAEQDKSSLISGSTSETNDHVLPRLESLVINWCDRLEVLHLPPSIKKLGIYSCEKLRSLSVKLDAVRELSIRHCGSLKSLESCLGELASLQQLKLFDCKSLESLPKGPQAYSSLTSLEIRGCSGIKVLPPSLQQRLDDIEDKELDACYEEAEAEPKSRHRQSAISRLMCLK
modifications: biotin (NHS-biotin) in the BLI assays; RED-NHS 2nd Generation dye in the MST assays
Kd [1]: 32.1 nM | Kd [2]: 127 nM
